Laboratory results: patent publication US6946255 (KO OKUMURA, dated 2005)

B5: soluble human Fas ligand molecule (ligand, UniProt P48023 130-281, looked up)
chain: QIGHPSPPPEKKELRKVAHLTGKSNSRSMPLEWEDTYGIVLLSGVKYKKGGLVINETGLYFVYSKVYFRGQSCNNLPLSHKVYMRNSKYPQDLVMMEGKMMSYCTTGQMWARSSYLGAVFNLTSADHLYVNVSELSLVNFEESQTFFGLYKL

How the values were obtained:
[1] = biological target: B5; experiment: cell-based or functional assay
[2] = biological target: T1, monkey Fas ligand on activated rhesus monkey peripheral blood mononuclear cell surfaces (rhesus monkey, UniProt P63307 1-280); experiment: flow cytometry (FACScan) on activated rhesus monkey PBMC, 1 µg antibody, PE-anti-mouse Ig's
T1 construct: whole, on cells; also called Fas ligand on monkey cell surfaces
T1 sequence (looked up): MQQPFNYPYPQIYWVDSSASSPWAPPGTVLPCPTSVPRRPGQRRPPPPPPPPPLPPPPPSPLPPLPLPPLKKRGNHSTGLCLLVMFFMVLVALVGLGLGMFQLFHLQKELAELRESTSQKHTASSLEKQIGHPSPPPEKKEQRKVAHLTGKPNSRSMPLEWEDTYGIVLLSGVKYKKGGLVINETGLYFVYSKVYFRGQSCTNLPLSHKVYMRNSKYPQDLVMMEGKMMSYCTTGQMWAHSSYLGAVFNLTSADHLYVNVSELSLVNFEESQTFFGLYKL
Description: Five milliliters of peripheral blood were collected from a rhesus monkey using a heparinized syringe. After the blood was diluted to ½ with PBS, its lymphocyte fraction was recovered by the specific gravity centrifugation using Separate L. These monkey peripheral blood mononuclear lymphocytes were cultured for 2 days in a 10% FCS•RPMI 1640 medium containing 10 μg/ml of Con A to activate them. Thereafter, the cells were recovered by centrifugation, and then cultured further for a week in a 10% FCS•RPMI 1640 medium containing 50 units/ml of human IL-2 (interleukin-2). After a week, PMA and ionomycin were added to give concentrations of 10 ng/ml and 500 ng/ml, respectively, to activate the cells further for 4 hours. At this time, BB94 (matrix protease inhibitor) was added in a proportion of 10 μM at the same time. The Fas ligand was expressed in a large amount on the lymphocytes by these activation processes. After 4 hours, the cell were collected to analyze them by flow cytometry. After collecting the cells, the number of cells was first counted to adjust the cells to 1 ×10^6 cells/ml with PBS. Thereafter, the cells were placed in portions of 1 ml into tubes (Farcon No-2008), and 100 μl of control PBS, 1 μg of NOK1 antibody (100 μl of one diluted to a concentration of 10 μg/ml with PBS), 1 μg of monoclonal antibody NOK2 (similarly, 100 μl at a concentration of 10 μg/ml) and 1 μg of monoclonal antibody NOK3 (similarly, 100 μl at a concentration of […]) were separately placed in the tubes, thereby conducting a reaction for 30 minutes on an ice bath.
After the respective cultures were centrifugally washed twice with PBS. 1 µl of PE-anti-mouse Ig's were placed in the tubes to conduct a reaction further for 30 minutes on the ice bath. After the cultures were washed with PBS and separately suspended in 200 µl of PBS, they were analyzed by FACScan.

[3] = biological target: T2, human Fas expressed on WR19L cells (human, UniProt P25445 26-335); experiment: cell-based or functional assay
T2 sequence (looked up): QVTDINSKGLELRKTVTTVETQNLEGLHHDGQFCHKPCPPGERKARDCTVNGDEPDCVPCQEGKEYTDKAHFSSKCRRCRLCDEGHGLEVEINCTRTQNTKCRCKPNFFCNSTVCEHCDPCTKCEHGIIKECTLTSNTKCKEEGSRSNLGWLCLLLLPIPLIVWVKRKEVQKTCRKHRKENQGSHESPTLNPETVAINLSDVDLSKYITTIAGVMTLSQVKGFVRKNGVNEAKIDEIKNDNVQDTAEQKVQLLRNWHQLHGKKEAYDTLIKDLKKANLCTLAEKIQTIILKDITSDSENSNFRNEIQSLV

[4] = biological target: T3, 10-mer peptide consisting of residues 5 to 14 of SEQ ID NO: 31 (immobilized on the tip of a Pepset pin); experiment: Pepset pin ELISA, HRP-labeled anti-mouse IgG
T3 construct: One of 44 overlapping 10-mer peptides of the extracellular domain of the Fas ligand
T3 peptide: VYMRNSKYPQ
Description: (§1) ⑨ After the pin of the Pepset was taken out of the well of the plate, 2N H_2SO_4 was added in an amount of 50 μl to each well to stop the reaction.

[5] = biological target: T4, 10-mer peptide consisting of residues 1 to 10 of SEQ ID NO: 31 (immobilized on the tip of a Pepset pin); experiment: Pepset pin ELISA, HRP-labeled anti-mouse IgG
T4 construct: One of 44 overlapping 10-mer peptides of the extracellular domain of the Fas ligand
T4 peptide: LSHKVYMRNS
Description: as §1

B1: monoclonal antibody NOK3 (produced by Hybridoma NOK3, FERM BP-5046) (antibody, V domains shown)
VH: VKLQESGPELVKPGASVKISCKASGYAFSSSWMNWVKQRPGKGLEWIGRIYPVNGDTNYNGKFKGKATLTADKSSSTAYMQLSSLTSEDSAVYFCATDGYWYFDVWGQGTTVTVSS
VL: NIVMTQSPKSMSMSVGERVTLSCKASENVDIYVSWYQQKPEQSPKLLIYGTSNRYTGVPDRFTGSGSATDFTLTISNVQAEDLSDYYCVQSYSYPWTFGGGTKLEIKR
notes: also called NOK3 antibody
- Survival rate [1]: 101%
- binding result [2]: binds

B2: monoclonal antibody NOK4 (produced by Hybridoma NOK4, FERM BP-5047) (antibody, V domains shown)
VH: VQLQESGPGLVKPSQSLSLTCSVTGYSITSGYYWNWIRQFPGNKLEWMGYISYDGSNNYNPSLKNRISITRDTSKNQFFLKLNSVTTEDTATYYCAVYYYDGSSFDYWGQGTTVTVSS
VL: DIVLTQSPASLAVSLRQRATISCRASEGVDSYGISFMHWYQQKPGQPPKLLIYRASYLKSGVPARFSGSGSRTDFTLTIDPVEADDAATYYCQQNNEDPWTFGGGTKLEIKR
- Survival rate [1]: 110%

B3: monoclonal antibody NOK5 (produced by Hybridoma NOK5, FERM BP-5048) (antibody, V domains shown)
VH: VQLQESGAEPAKPGASVKMSCKASGYTFTTYWMHWVKQRPGQGLEWIGYINPSSGYTEYNQKFKDKATLTADKSSSTAYMQLISLTSEDSAVYYCARRGNYYYFDYWGQGTTVTVSS
VL: DVLMTQTPKFLPVSAGDRVTMTCKASQSVGNNVAWYQQKPGQSPKLLIYYTSNRYTGVPDRFTGSGSGTDFTFTISSVQVEDLAVYFCQQHYSSPYTFGSGTKLE
- Survival rate [1]: 98.2%

B4: monoclonal antibody NOK1 (produced by Hybridoma NOK1, FERM BP-5044) (antibody, V domains shown)
VH: VQLQESGPELVKPGASVKISCKASGYAFSSSWMNWVKQRPGKGLEWIGRIYPGDGDTNDNGKFKGKATLTADKSSSTAYMQLSSLTSEDSAVYFCARSYYYDGSPWFTYWGQGTTVTVSS
VL: DIQMTQSPSSLSASLGDRVTISCRASQDISNYLNWYQQKPDGTVKLLIYYTSRLHSGVPSRFSGSGSGTDYSLTISNLEPEDIATYFCQQYSEFPWTFGGGTKLEIKR
notes: Used as hybridoma culture supernatant, as antibody purified from ascites, biotin-labelled, or coupled to Sepharose beads; also called NOK1 antibody; biotinized monoclonal antibody NOK1
- Survival rate [1]: 99.3%
- binding result [2]: binds

Binder: B5
- Survival rate [3]: 3.5%

B6: monoclonal antibody NOK2 (produced by Hybridoma NOK2, FERM BP-5045) (antibody, V domains shown)
VH: VQLQQSGAELVRPGTSVKMSCKAAGYTFTNYWIGWVKQRPGHGLEWIGYLYPGGLYTNYNEKFKGKATLTADTSSSTAYMQLSSLTSEDSAIYYCARYRDYDYAMDYWGQGTTVTVSS
VL: DVLMTQTPLSLPVNIGDQASISCKSTKSLLNSDGFTYLGWCLQKPGQSPQLLIYLVSNRFSGVPDRFSGSGSGTDFTLKISRVEAEDLGVYYCFQSNYLPLTFGSGTKLEIKR
notes: also called NOK2 antibody
- Survival rate [1]: 105%
- binding result [4]: binds
- binding result [5]: binds
- binding result [2]: binds
